Laboratory results from the DeepSol protein solubility set.

Assay: soluble on expression in E. coli; label from the status in PepcDB or PDB records

Sequence | soluble on expression in E. coli
MLISLIVPIYNVEGFLPRCLDSIIKQEYQNLEIVLVNDGSTDQSGLICDQYAEKDERFIVFHKENGGVSSARNVGLNKANGNYIGFVDPDDWIEPNMINKLYELIIQHKADIAMCGYVKEDINGLLISRPVELSTKILNKEDTLNSILNPNDFRGFLCNKLFSVDLFRKKNLYLDEDIHFCEDLLFCCQAILESKQIVYDSTPYYHYIIHNNNASKSNFSFKKLTALNSLDNIINLLNDQKGIELEQYKNYYMHLNISLLMNGIHEDKIRRQDKERLKKNLYKFKINDLTSKFVKFSCVLARLNLNLYYFIWKNAKPSN | not soluble
MLKEVPIKRRQSTKIYVGNVPVGGDAPIAVQSMTNTRTTDIEATIAQIKALERVGADIVRVSVPTMDAAEAFKVIKQQVNVPLVADIHFDYRIALKVAEYGVDCLRINPGNIGNEERIRAVVDCAKDKNIPIRIGVNAGSLERDLQEKYGEPTPQALLESALRHVEILDRFNFDQFKVSVKASDVFLAVESYRLLAKAIKQPIHLGITEAGGARAGSVKSAIGLGLLLSEGIGDTLRVSLAADPVDEVKVGFDILKSLRIRSRGINFVACPTCSRQEIDVIATVNALEQRLEDILTPMDVSIIGCVVNGPGEALVSDLGVTGSNKMSGFYLDGVRQKERFDNDKLIDQLEAKIRAKVAQQHHRIAIEQILEHHHHHH | not soluble
MLKLGVIGTGAISHHFIEAAHTSGEYQLVAIYSRKLETAATFASRYQNIQLFDQLEVFFKSSFDLVYIASPNSLHFAQAKAALSAGKHVILEKPAVSQPQEWFDLIQTAEKNNCFIFEAARNYHEKAFTTIKNFLADKQVLGADFNYAKYSSKMPDLLAGQTPNVFSDRFAGGALMDLGIYPLYAAVRLFGKANDATYHAQQLDNSIDLNGDGILFYPDYQVHIKAGKNITSNLPCEIYTTDGTLTLNTIEHIRSAIFTDHQGNQVQLPIQQAPHTMTEEVAAFAHMIQQPDLNLYQTWLYDAGSVHELLYTMRQTAGIRFEAEK | soluble
MLKNEETEKKLNLNQQRLGTVVAVLKSVNAKKVIDLGCGEGNLLSLLLKDKSFEQITGVDVSYSVLERAKDRLKIDRLPEMQRKRISLFQSSLVYRDKRFSGYDAATVIEVIEHLDENRLQAFEKVLFEFTRPQTVIVSTPNKEYNFHYGNLFEGNLRHRDHRFEWTRKEFQTWAVKVAEKYGYSVRFLQIGEIDDEFGSPTQMGVFTLGAGGHHHHHH | soluble
MLKSLQIPVEKLTSKGIKSAEDRITWVKREIGRLPEKEEVFNAILEALKEELGIEPYWGELTKEELELFEEKKDYFKSDEWIYHVKKAITGDEILYGIYRCPGGTFRVSAKVDPQTKVLQQVIINGDFFINPKRLIYDLEAYLKHTPVQEVEKRIREFFKEREFESVNLTVDDFVEA | soluble
MLKSVQGLWKDFFGIRDDGRKREYGSLDEVRKRSALRSRRKQMRPTGKSVLKRPRKVTDRKTEEKIRTNRRKTPKRRLTKIFQTIRDVFSNDNENMSKMQNVCGDMTRILKKRSQGRPSYMDTDTAKSRILRSDAFKRKISELKYNKQRISELRSGSSDGSSGKDRNQSLYLDREILLQRQIKKRDEKIKALESKLQSLQEALNYSNEKYRILEDLLDSSNIHPSYTKSRRTMSNLARENDEIKPLKIDLSPSPIRRTNSLFTSSPMKTYNRDGNIPEMQPLQENISPACPTPPYRSRETEKEDETLSPISVDFSSYLS | soluble
MLKVEMLSTGDEVLHGQIVDTNAAWLADFFFHQGLPLSRRNTVGDNLDDLVTILRERSQHADVLIVNGGLGPTSDDLSALAAATAKGEGLVLHEAWLKEMERYFHERGRVMAPSNRKQAELPASAEFINNPVGTACGFAVQLNRCLMFFTPGVPSEFKVMVEHEILPRLRERFSLPQPPVCLRLTTFGRSESDLAQSLDTLQLPPGVTMGYRSSMPIIELKLTGPASEQQAMEKLWLDVKRVAGQSVIFEGTEGLPAQISRELQNRQFSLTLSEQFTGGLLALQLSRAGAPLLACEVVPSQEETLAQTAHWITERRANHFAGLALAVSGFENEHLNFALATPDGTLALRVRFSTTRYSLAIRQEVCAMMALNMLRRWLNGQDIASEHGWIEVVESMTLSV | soluble
MLKVEMLSTGDEVLYGQIVDTNAAWLADFFFHQGLPLSRRNTVGDNLDDLVTILRERSQHADVLIVNGGLGPTSDDLSALAAATAKGEGLVLHEAWLKEMERYFHERGRVMAPSNRKQAELPASAEFINNPVGTACGFAVQLNRCLMFFTPGVPSEFKVMVEHEILPRLRERFSLPQPPVCLRLTTFGRSESDLAQSLDTLQLPPGVTMGYRSSMPIIELKLTGPASEQQAMEKLWLDVKRVAGQSVIFEGTEGLPAQISRELQNRQFSLTLSEQFTGGLLALQLSRAGAPLLACEVIPSQEETLAQTAHWITERRANHFAGLALAVSGFENEHLNFALATPDGTFALRVRFSTTRYSLAIRQEVCAMMALNMLRRWLNGQDIASEHGWIEVVESMTLSV | not soluble
MLKYNVRGENIEVTDALRSYVEKRLNKLEKYFELNQDVIAHVNLRVYRDHSAKVEVTIPLPYLVLRAEETTDDMYRSIDFVSEKLERQIRKYKTRVNRKSREKGLQDFFVEQPEEEKKPSEFDIVRNKRVSLKPMDPEEAILQMDMLEHDFFVFEDAETNGTSVVYRRNDGRYGLIETNELEHHHHHH | soluble
MLLLPSAADGRGTAITHALTSASTLCQVEPVGRWFEAFVKRRNRNASASFQELEDKKELSEESEDEELQLEEFPMLKTLDPKDWKNQDHYAVLGLGHVRYKATQRQIKAAHKAMVLKHHPDKRKAAGEPIKEGDNDYFTCITKAYEMLSDPVKRRAFNSVDPTFDNSVPSKSEAKDNFFEVFTPVFERNSRWSNKKNVPKLGDMNSSFEDVDIFYSFWYNFDSWREFSYLDEEEKEKAECRDERRWIEKQNRATRAQRKKEEMNRIRTLVDNAYSCDPRIKKFKEEEKAKKEAEKKAKAEAKRKEQEAKEKQRQAELEAARLAKEKEEEEVRQQALLAKKEKDIQKKAIKKERQKLRNSCKTWNHFSDNEAERVKMMEEVEKLCDRLELASLQCLNETLTSCTKEVGKAALEKQIEEINEQIRKEKEEAEARMRQASKNTEKSTGGGGNGSKNWSEDDLQLLIKAVNLFPAGTNSRWEVIANYMNIHSSSGVKRTAKDVIGKAKSLQKLDPHQKDDINKKAFDKFKKEHGVVPQADNATPSERFEGPYTDFTPWTTEEQKLLEQALKTYPVNTPERWEKIAEAVPGRTKKDCMKRYKELVEMVKAKKAAQEQVLNASRAKK | not soluble
MLLRKFCGIEKTDNGYLIHGDAGDIKLVFMTDDIIRIRVSFDRKFKEASYALVTTAWEDELDELFQEERTRIQAKDVVCEEKEDALIFHTTALKLVMKKQPIQFLLYDVEGKLIYNDLKERAFDQDQLGRVTHYSEIHADTDHFYGFGEKTGHLDKKGRHLRMSPKDAIGADPEFGEPLYKHVPFYIRVNEENLHALGLFYNNSYDAVFDMGNERSGYWDSYCYYQADGGDIDLFLINGPKMASVLERYTYLTGRQAMPTKQSLGYTASTMYYAELEQNCDEEIYKVIQKHFDEKIYIDNFWLASGYSSGEEDNLRYVFNWNKKRFPDPEGFFEKMEQEMGINVIPNMKPGILKNHPYRKVFEQYDAFVKTPDKAEDYVGRWWGGEGRFVDFTKKAGRDAWKELLKKNLMAKGMRTVWNDNCEYDGVEDRNAYCDHEGMGGTMAELKIIQSNMMAYTGKEALKEVYPKARPYIINRAGYAGIQRYAQVWAGDNLTDWRTVKFNIATIMGMGLSGMSNAGCDIGGFAGPAPGGELLLRWIQNGIFQPRFCINSANNDNTVTQPWMYEENLPYVQAAYAQRYRMIPYLYSVMRESHENGMPVMRPLFLEFPEDVKCYRDQNLTFMFGPSVLVANVVEKGAITRTIYLPKGTTWYDMNDNFKAYEGGQTIELPVDLSSIPMFLRGSAVYMTTEDIHHIAKDTMKALDLFVSCEEDAEFTYYDDDGWSKEYEEGNFAETKISVKAGDRKQIHFHKNGFYQESWENLNLNVVSKEKGAYWVSVDGEKIPRFLIRDAFDEAETGWYYDMSDRIVKVKCKKPQKDDFEIVVSCEKFDLIGMENEI | not soluble
MLMLRSPFSDSNVLDHFLDEITGSVQFPYWRNADHNSFNFSDNIGEIVNDESKFSVQLDVSHFKPEDLKIELDGRELKIEGIQEKKSEHGYSKRSFSKMILLPEDVDLTSVKSAISNEGKLQIEAPKKTNSSRSIPINFVAKH | not soluble
